Results as given in article PMC12117103, “Cryo-EM Structure of the relaxosome, a complex essential for bacterial mating and the spread of antibiotic resistance genes” (Nature Communications, 2024).

Target: the molecule itself
Test: SEC; last purification step of TraM on Superdex 200 Increase 10/300 in 20 mM Tris-HCl pH 7.5, 100 mM NaCl

B1: TraM (F plasmid) (natural protein, E. coli F plasmid, UniProt P10026 1-127, looked up)
chain: MAKVNLYISNDAYEKINAIIEKRRQEGAREKDVSFSATASMLLELGLRVHEAQMERKESAFNQTEFNKLLLECVVKTQSSVAKILGIESLSPHVSGNSKFEYANMVEDIREKVSSEMERFFPKNDDE
notes: TraM accessory protein of the F plasmid; synthetic traM gene in the NcoI and HindIII sites of pET28a; In the relaxosome only an AlphaFold model was docked into low-resolution density; also called TraM tetramer; source: E. coli C41 (DE3), purified (ammonium sulphate, HiTrap Heparin, resource Q, HiTrap Blue, Superdex 200 SEC)
B1: binds.
